Results taken from IntAct's records for PubMed 36931259.

B1: 14-3-3 protein sigma (Homo sapiens), P31947 (parent)
chain: MERASLIQKAKLAEQAERYEDMAAFMKGAVEKGEELSCEERNLLSVAYKNVVGGQRAAWRVLSSIEQKSNEEGSEEKGPEVREYREKVETELQGVCDTVLGLLDSHLIKEAGDAESRVFYLKMKGDYYRYLAEVATGDDKKRIIDSARSAYQEAMDISKKEMPPTNPIRLGLALNFSVFHYEIANSPEEAISLAKTTFDEAMADLHTLSEDSYKDSTLIMQLLRDNLTLWTADNAGEEGGEAPQEPQS
partner: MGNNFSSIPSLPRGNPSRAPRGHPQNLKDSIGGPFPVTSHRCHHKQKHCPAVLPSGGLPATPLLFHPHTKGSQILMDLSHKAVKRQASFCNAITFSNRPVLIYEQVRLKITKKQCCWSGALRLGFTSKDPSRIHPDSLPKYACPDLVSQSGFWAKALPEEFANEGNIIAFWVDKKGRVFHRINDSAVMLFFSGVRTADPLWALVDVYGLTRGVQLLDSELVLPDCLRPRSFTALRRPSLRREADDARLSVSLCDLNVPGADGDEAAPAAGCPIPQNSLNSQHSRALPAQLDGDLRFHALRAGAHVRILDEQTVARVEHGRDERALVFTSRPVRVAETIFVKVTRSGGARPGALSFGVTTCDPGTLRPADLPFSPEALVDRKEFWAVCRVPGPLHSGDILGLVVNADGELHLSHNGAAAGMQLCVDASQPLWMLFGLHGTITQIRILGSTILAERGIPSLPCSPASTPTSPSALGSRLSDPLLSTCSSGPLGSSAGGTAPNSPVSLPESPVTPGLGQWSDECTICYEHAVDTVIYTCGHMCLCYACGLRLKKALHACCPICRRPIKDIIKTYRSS
B2: 14-3-3 protein sigma (Homo sapiens), P31947 (parent)
chain: B1 chain
partner: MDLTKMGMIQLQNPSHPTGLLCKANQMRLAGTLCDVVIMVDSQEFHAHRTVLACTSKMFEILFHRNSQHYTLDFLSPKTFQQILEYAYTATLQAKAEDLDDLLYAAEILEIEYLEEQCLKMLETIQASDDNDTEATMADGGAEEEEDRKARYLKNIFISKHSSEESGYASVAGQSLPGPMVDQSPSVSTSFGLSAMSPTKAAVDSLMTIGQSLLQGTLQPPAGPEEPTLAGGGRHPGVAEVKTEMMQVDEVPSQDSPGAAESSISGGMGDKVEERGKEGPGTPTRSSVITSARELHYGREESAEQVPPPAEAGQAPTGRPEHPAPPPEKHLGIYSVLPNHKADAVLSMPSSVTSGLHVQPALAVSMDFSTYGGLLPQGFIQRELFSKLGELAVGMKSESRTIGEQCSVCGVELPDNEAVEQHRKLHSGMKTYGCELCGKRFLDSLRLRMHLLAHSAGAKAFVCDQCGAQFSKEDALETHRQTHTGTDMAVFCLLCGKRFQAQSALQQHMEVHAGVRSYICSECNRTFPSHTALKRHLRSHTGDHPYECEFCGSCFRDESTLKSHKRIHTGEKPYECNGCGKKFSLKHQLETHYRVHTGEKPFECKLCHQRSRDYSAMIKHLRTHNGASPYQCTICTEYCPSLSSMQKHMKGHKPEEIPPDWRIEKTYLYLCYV
B3: 14-3-3 protein sigma (Homo sapiens), P31947 (parent)
chain: B1 chain
partner: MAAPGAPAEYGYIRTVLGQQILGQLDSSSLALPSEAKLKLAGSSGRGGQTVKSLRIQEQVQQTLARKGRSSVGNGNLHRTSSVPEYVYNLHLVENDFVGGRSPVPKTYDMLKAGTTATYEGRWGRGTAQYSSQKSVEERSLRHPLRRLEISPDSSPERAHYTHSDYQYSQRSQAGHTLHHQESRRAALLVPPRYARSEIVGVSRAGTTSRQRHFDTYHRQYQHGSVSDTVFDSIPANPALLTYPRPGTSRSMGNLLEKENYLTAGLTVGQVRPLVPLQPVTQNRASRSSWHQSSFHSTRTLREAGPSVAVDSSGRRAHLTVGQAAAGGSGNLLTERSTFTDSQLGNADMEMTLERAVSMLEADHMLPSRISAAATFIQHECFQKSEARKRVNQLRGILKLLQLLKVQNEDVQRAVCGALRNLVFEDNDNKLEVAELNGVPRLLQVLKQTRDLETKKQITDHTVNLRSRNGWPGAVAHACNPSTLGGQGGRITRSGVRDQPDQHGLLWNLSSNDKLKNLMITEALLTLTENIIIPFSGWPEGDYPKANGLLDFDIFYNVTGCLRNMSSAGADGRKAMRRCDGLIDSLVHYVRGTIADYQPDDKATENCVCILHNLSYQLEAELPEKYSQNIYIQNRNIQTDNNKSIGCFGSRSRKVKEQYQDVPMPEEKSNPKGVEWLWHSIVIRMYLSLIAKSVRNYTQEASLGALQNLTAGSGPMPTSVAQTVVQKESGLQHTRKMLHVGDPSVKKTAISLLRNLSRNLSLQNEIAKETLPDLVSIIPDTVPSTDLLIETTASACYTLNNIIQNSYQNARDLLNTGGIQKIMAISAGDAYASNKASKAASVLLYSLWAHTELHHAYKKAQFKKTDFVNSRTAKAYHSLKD
B4: 14-3-3 protein sigma (Homo sapiens), P31947 (parent)
chain: B1 chain
partner: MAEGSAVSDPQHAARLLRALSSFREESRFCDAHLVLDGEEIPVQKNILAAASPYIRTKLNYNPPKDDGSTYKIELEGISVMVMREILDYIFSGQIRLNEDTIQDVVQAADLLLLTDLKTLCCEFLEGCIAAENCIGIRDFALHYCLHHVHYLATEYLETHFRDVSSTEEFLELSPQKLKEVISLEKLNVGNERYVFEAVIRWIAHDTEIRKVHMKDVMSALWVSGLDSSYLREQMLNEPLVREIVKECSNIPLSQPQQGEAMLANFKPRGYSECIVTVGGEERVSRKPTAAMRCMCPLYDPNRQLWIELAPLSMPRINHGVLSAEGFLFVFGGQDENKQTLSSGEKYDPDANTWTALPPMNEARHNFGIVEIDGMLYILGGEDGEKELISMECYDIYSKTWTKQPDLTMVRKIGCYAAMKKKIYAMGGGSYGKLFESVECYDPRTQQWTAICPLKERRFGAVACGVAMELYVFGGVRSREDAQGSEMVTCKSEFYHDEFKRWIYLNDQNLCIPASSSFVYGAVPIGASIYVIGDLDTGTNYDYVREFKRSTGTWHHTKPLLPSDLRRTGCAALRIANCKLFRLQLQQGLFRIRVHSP
B5: 14-3-3 protein sigma (Homo sapiens), P31947 (parent)
chain: B1 chain
partner: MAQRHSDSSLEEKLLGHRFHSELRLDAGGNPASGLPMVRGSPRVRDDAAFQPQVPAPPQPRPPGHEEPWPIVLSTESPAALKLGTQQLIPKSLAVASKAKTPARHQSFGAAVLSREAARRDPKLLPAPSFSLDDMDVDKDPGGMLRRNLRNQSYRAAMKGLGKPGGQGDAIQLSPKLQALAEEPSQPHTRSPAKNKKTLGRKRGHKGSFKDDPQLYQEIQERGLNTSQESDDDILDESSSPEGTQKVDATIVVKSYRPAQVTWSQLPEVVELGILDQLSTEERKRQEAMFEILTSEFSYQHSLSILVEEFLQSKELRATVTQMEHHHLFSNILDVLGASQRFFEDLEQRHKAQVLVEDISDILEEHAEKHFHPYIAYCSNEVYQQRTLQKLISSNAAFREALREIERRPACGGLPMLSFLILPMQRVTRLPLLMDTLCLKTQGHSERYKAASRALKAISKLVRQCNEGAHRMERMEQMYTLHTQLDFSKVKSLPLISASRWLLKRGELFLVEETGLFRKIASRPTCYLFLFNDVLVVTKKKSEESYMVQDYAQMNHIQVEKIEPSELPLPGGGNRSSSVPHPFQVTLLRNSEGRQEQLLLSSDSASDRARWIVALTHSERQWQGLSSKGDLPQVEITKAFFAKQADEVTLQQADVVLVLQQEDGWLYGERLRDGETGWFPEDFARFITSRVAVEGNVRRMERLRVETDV
B6: Serine/threonine-protein kinase PAK 5 (Homo sapiens), Q9P286 (parent)
chain: MFGKKKKKIEISGPSNFEHRVHTGFDPQEQKFTGLPQQWHSLLADTANRPKPMVDPSCITPIQLAPMKTIVRGNKPCKETSINGLLEDFDNISVTRSNSLRKESPPTPDQGASSHGPGHAEENGFITFSQYSSESDTTADYTTEKYREKSLYGDDLDPYYRGSHAAKQNGHVMKMKHGEAYYSEVKPLKSDFARFSADYHSHLDSLSKPSEYSDLKWEYQRASSSSPLDYSFQFTPSRTAGTSGCSKESLAYSESEWGPSLDDYDRRPKSSYLNQTSPQPTMRQRSRSGSGLQEPMMPFGASAFKTHPQGHSYNSYTYPRLSEPTMCIPKVDYDRAQMVLSPPLSGSDTYPRGPAKLPQSQSKSGYSSSSHQYPSGYHKATLYHHPSLQSSSQYISTASYLSSLSLSSSTYPPPSWGSSSDQQPSRVSHEQFRAALQLVVSPGDPREYLANFIKIGEGSTGIVCIATEKHTGKQVAVKKMDLRKQQRRELLFNEVVIMRDYHHDNVVDMYSSYLVGDELWVVMEFLEGGALTDIVTHTRMNEEQIATVCLSVLRALSYLHNQGVIHRDIKSDSILLTSDGRIKLSDFGFCAQVSKEVPKRKSLVGTPYWMAPEVISRLPYGTEVDIWSLGIMVIEMIDGEPPYFNEPPLQAMRRIRDSLPPRVKDLHKVSSVLRGFLDLMLVREPSQRATAQELLGHPFLKLAGPPSCIVPLMRQYRHH
partner: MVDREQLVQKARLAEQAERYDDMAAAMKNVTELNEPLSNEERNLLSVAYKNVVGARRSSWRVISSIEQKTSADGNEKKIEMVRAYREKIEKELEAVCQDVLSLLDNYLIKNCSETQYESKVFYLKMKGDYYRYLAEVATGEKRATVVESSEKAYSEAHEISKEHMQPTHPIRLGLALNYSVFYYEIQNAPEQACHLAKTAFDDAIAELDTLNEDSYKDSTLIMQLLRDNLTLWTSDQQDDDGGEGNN
B7: 14-3-3 protein sigma (Homo sapiens), P31947 (parent)
chain: B1 chain
partner: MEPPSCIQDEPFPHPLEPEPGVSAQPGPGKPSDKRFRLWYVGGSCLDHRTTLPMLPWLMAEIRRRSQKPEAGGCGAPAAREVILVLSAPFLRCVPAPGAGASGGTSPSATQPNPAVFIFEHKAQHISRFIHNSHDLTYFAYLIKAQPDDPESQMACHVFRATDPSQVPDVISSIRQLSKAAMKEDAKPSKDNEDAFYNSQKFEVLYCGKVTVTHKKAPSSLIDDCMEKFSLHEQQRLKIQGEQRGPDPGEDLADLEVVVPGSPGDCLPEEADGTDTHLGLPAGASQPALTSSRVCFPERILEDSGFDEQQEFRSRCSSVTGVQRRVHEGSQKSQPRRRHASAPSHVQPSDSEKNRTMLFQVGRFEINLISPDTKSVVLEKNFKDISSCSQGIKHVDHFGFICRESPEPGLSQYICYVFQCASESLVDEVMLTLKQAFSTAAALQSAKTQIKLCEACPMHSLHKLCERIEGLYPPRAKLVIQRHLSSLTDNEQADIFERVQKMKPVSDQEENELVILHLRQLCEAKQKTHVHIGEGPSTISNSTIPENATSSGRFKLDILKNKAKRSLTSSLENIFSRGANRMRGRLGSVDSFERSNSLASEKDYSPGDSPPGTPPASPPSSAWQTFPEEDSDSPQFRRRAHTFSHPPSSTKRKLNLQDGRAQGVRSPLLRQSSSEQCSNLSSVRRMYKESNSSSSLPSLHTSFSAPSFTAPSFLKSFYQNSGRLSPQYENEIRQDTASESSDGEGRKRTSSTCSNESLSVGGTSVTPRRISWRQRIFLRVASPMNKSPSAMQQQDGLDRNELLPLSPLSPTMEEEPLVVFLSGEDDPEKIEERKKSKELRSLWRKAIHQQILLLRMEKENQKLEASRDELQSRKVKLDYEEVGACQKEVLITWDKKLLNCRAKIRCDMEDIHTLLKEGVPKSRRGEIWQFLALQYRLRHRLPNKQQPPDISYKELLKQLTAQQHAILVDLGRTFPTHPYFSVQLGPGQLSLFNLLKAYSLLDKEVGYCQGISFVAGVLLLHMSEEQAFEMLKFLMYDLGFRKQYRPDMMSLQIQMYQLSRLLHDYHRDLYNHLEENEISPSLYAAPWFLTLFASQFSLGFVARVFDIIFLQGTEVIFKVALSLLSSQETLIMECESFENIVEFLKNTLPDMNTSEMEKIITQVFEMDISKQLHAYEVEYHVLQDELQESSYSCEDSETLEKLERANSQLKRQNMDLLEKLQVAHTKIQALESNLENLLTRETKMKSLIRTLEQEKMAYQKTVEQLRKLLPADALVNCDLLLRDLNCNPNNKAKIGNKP

Variants of: B1
Settings: with neul1_human NEURL1, O76050

| effect of a mutation on the interaction | Variant |
| --- | --- |
| decreasing interaction strength | K49E;R56E;V178D |

Variants of: B2
Settings: with zbt16_human ZBTB16, Q05516

| effect of a mutation on the interaction | Variant |
| --- | --- |
| decreasing interaction strength | K49E;R56E;V178D |

Variants of: B3
Settings: with pkp2_human PKP2, Q99959

| effect of a mutation on the interaction | Variant |
| --- | --- |
| decreasing interaction strength | K49E;R56E;V178D |

Variants of: B4
Settings: with gan_human GAN

| effect of a mutation on the interaction | Variant |
| --- | --- |
| decreasing interaction strength | K49E;R56E;V178D |

Variants of: B5
Settings: with arhgg_human ARHGEF16, Q5VV41

| effect of a mutation on the interaction | Variant |
| --- | --- |
| decreasing interaction strength | K49E;R56E;V178D |

Variants of: B6
Settings: with 1433g_human YWHAG

| effect of a mutation on the interaction | Variant |
| --- | --- |
| decreasing interaction strength | S99A;S270A;S290A;T317A;T349A |

Variants of: B7
Settings: with tbcd4_human TBC1D4, O60343

| effect of a mutation on the interaction | Variant |
| --- | --- |
| decreasing interaction strength | K49E;R56E;V178D |
